Measured values published in the supplement of paper PMC10567573.

B1: TRIM9 (parent)
chain: CVQCKMPVCYQCLEEGKHSSHEVK

Variants of: B1
Assay: protein stability index of a GFP-peptide fusion (GPS, HEK-293T) (PSI 1-6); higher = more stable
Settings: c terminus: a fixed tail appended
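Also: lentivirally expressed fusions sorted by FACS into six bins by GFP to DsRed ratio, PSI derived from sequencing read proportions per bin multiplied by bin number.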

Row | Variant | protein stability index
1 | CVQCKMPVCYQCLREGKHSSHEVK [E14R] | 3.83
2 | CVQCKMPVCYQCAEEGKHSSHEVK [L13A] | 4.22
3 | CVQCKMPVCYPCLEEGKHSSHEVK [Q11P] | 3.76
4 | CVQCKMPVCYQCLEAGKHSSHEVK [E15A] | 4.08
5 | CVQCEMPVCYQCLEEGKHSSHEVK [K5E] | 4.22
6 | CVQCKMPICYQCLEEGKHSSHEVK [V8I] | 3.66
7 | CVQCKMPVMYQCLEEGKHSSHEVK [C9M] | 3.64
8 | CVQCKMPVCYQCLEEGKHSFHEVK [S20F] | 2.59
9 | CVQWKMPVCYQCLEEGKHSSHEVK [C4W] | 3.17
10 | HVQCKMPVCYQCLEEGKHSSHEVK [C1H] | 4.52
11 | CVQCKMPVCYQCLEHGKHSSHEVK [E15H] | 3.36
12 | CVQCKMPVCYQCLEEGPHSSHEVK [K17P] | 3.75
13 | CVQCKMPVCYQCFEEGKHSSHEVK [L13F] | 3.86
14 | CVQCKMPVCYFCLEEGKHSSHEVK [Q11F] | 3.65
15 | CVQCKMPVCYQCLEEGKFSSHEVK [H18F] | 3.78
16 | CVQCKRPVCYQCLEEGKHSSHEVK [M6R] | 4.17
17 | CVQCKMPVCYQCLEEGKVSSHEVK [H18V] | 3
18 | IVQCKMPVCYQCLEEGKHSSHEVK [C1I] | 3.08
19 | CVQCKMPVCYQCLEERKHSSHEVK [G16R] | 3.27
20 | MVQCKMPVCYQCLEEGKHSSHEVK [C1M] | 2.93
21 | CVQCKMPVCYQHLEEGKHSSHEVK [C12H] | 4.34
22 | CVQCKMPVCYQCLEEGKHSSHEKK [V23K] | 3.68
23 | CVQCKHPVCYQCLEEGKHSSHEVK [M6H] | 4.3
24 | CVQCKMPVCYQCLEEGKHASHEVK [S19A] | 4.41

Row | Variant | protein stability index
25 | CVQCKMPVCYQCLEEGKHSSHEVP [K24P] | 3.62
26 | CVQCKMPVCYQCLEEGKHSSHESK [V23S] | 3.37
27 | CVQCKMSVCYQCLEEGKHSSHEVK [P7S] | 3.65
28 | CVQCKMPVCYQSLEEGKHSSHEVK [C12S] | 4.48
29 | CVQCKMPVCYQCLEEGKHSSVEVK [H21V] | 4.05
30 | CVQCKMPVCYQCLEEGKHGSHEVK [S19G] | 3.67
31 | CVQCKMPVCYQCLEEGKHSSHFVK [E22F] | 3.56
32 | CVQCKMPVCDQCLEEGKHSSHEVK [Y10D] | 4.83
33 | CLQCKMPVCYQCLEEGKHSSHEVK [V2L] | 3.5
34 | CWQCKMPVCYQCLEEGKHSSHEVK [V2W] | 3.16
35 | CVQCKMPVCYQCLENGKHSSHEVK [E15N] | 3.82
36 | CVQCKMPVCYQCLERGKHSSHEVK [E15R] | 3.47
37 | CVQCKMPVCYQCLEEGKHSNHEVK [S20N] | 3.69
38 | CVQCKMPVCTQCLEEGKHSSHEVK [Y10T] | 3.52
39 | CVQCKMPCCYQCLEEGKHSSHEVK [V8C] | 3.95
40 | CVQCKMPVCYQCDEEGKHSSHEVK [L13D] | 4.04
41 | CVQCKMPVCYQCLEEGKHSSAEVK [H21A] | 3.15
42 | CVQCKMPVCYQTLEEGKHSSHEVK [C12T] | 3.42
43 | CVQCKMPVCYQCLEEGKHSSHDVK [E22D] | 3.29
44 | CVQCKMPVCVQCLEEGKHSSHEVK [Y10V] | 3.74
45 | CVQCKMPVCPQCLEEGKHSSHEVK [Y10P] | 3.63
46 | CVFCKMPVCYQCLEEGKHSSHEVK [Q3F] | 3.1
47 | CVQCKMPVCYQCLEVGKHSSHEVK [E15V] | 3.47
48 | CVQCKMPVCYQCLEEGKHSSFEVK [H21F] | 2.88

Row | Variant | protein stability index
49 | CVQCKMPVCYQCLEEYKHSSHEVK [G16Y] | 3.41
50 | CVQCKMPVCYYCLEEGKHSSHEVK [Q11Y] | 3.52
51 | CVQCKMPVCYQCLEEGKHSSPEVK [H21P] | 4.08
52 | CVQCKMPVCYQCLEEGKHSSEEVK [H21E] | 4.57
53 | CVQCKMPVCYQCLEEGKHSSKEVK [H21K] | 3.76
54 | CVQCKMPVCYQCLEEGKISSHEVK [H18I] | 3.41
55 | CVQCKMPVCYQCTEEGKHSSHEVK [L13T] | 3.08
56 | CVQCKMPVCYQCLEEGKHSSHCVK [E22C] | 4.27
57 | CVQCKMPVCKQCLEEGKHSSHEVK [Y10K] | 4.15
58 | CVQCVMPVCYQCLEEGKHSSHEVK [K5V] | 2.41
59 | CCQCKMPVCYQCLEEGKHSSHEVK [V2C] | 3.98
60 | CVQCKMPVCYQCLEEGKHSSWEVK [H21W] | 2.96
61 | CVQCKMPVCYQCLEEGKHSSHEVM [K24M] | 3.68
62 | CVQCKMPVCYQCHEEGKHSSHEVK [L13H] | 4.55
63 | CVQCKMPVCYQCLLEGKHSSHEVK [E14L] | 2.93
64 | YVQCKMPVCYQCLEEGKHSSHEVK [C1Y] | 1.74
65 | CVQCKMPVCYQCLEEGKHSSHRVK [E22R] | 3.12
66 | CVQCKMPFCYQCLEEGKHSSHEVK [V8F] | 4.03
67 | CVQCKMPMCYQCLEEGKHSSHEVK [V8M] | 4.13
68 | CVQCKMPVCYQCLEEGKHSSHVVK [E22V] | 4.17
69 | CPQCKMPVCYQCLEEGKHSSHEVK [V2P] | 4.18
70 | CVQCKMPVCYQCLEEGKHSPHEVK [S20P] | 4.13
71 | CVQCKMPVCYQCLEEGHHSSHEVK [K17H] | 4.47
72 | CVQCKMPRCYQCLEEGKHSSHEVK [V8R] | 3.75

Row | Variant | protein stability index
73 | CVQCKMPVCYMCLEEGKHSSHEVK [Q11M] | 3.17
74 | CVQCKMPVCYQDLEEGKHSSHEVK [C12D] | 4.2
75 | CVQCKMPVCYQCLEEGKHSQHEVK [S20Q] | 4.29
76 | CVQCKMPVCYQCLFEGKHSSHEVK [E14F] | 2.97
77 | CVWCKMPVCYQCLEEGKHSSHEVK [Q3W] | 2.88
78 | TVQCKMPVCYQCLEEGKHSSHEVK [C1T] | 3.75
79 | CVQCKMPVCYQCLEEGKHSSHQVK [E22Q] | 2.73
80 | CVQCKMPVCYQCLEEGKHSSHEIK [V23I] | 3.7
81 | CVQCKMPVCYQCLMEGKHSSHEVK [E14M] | 3.17
82 | CVQCKKPVCYQCLEEGKHSSHEVK [M6K] | 4.46
83 | CVQCKMPVCYQCLNEGKHSSHEVK [E14N] | 3.66
84 | CVQCKMPVCYQCLVEGKHSSHEVK [E14V] | 3.34
85 | CVQCKMPVCYQCLEEGKHESHEVK [S19E] | 4.62
86 | CVQCKMPVCYQCLEECKHSSHEVK [G16C] | 4.33
87 | CVQCKMPVCYQCLEEGFHSSHEVK [K17F] | 3.1
88 | CVQCKMPVCYQCLEEGKHPSHEVK [S19P] | 4.17
89 | CVQCKMPVCYQCLEIGKHSSHEVK [E15I] | 3.82
90 | CVQCKMPVCYQCLEEGKHSSHEVT [K24T] | 3.7
91 | CVGCKMPVCYQCLEEGKHSSHEVK [Q3G] | 3.73
92 | CVQCKMPVWYQCLEEGKHSSHEVK [C9W] | 2.96
93 | CVQCKMPVCYQCLEEGKHSSHEGK [V23G] | 3.84
94 | CVQCKMPVCYQCLEEGKESSHEVK [H18E] | 3.56
